In patent publication EP0769025B1:

Legend:
[1] = target: monoclonal antibody AF-28; assay: competition ELISA, competitor against plate-coated 32-mer for AF-28
[2] = target: monoclonal antibody AF-28; assay: competition ELISA, 32-mer as both coating (25 pmoles/ml, Figure 6b) and standard antigen

| times less competitive than the 32-mer [1] [times] | IC50 [2] [nM] | Binder |
| --- | --- | --- |
| 230 | – | FGVGGEEDI [… 9-mer] |
| – | 16 | FFGVGGEEDITVQTVTWPDMELPLPRNITEGE [… (FFGVG...EGE 32-mer) synthetic peptide] |
